Patent US5580955A, “Fragments of neurofibromin (NF1) and method to reverse activated ras induced malignant transformation in mammalian cells” (Ludwig Institute for Cancer Research, priority 1995, dated 1996)

B1: NF78: NF1 fragment, amino acid residues 1441 to 1518 (protein)
chain: RPFNDFVKSNFDAARRFFLDIASDCPTSDAVNHSLSFISDGNVLALHRLLWNNQEKIGQYLSSNRDHKAVGRRPFDKM
B2: GAP1C: the 709-1044 amino acid C-terminal GTPase activating domain of GAP1 (protein, UniProt P20936 709-1044, looked up, fragment)
chain: RARYSMEKIMPEEEYSEFKELILQKELHVVYALSHVCGQDRTLLASILLRIFLHEKLESLLLCTLNDREISMEDEATTLFRATTLASTLMEQYMKATATQFVHHALKDSILKIMESKQSCELSPSKLEKNEDVNTNLTHLLNILSELVEKIFMASEILPPTLRYIYGCLQKSVQHKWPTNTTMRTRVVSGFVFLRLICPAILNPRMFNIISDSPSPIAARTLILVAKSVQNLANLVEFGAKEPYMEGVNPFIKSNKHRMIMFLDELGNVPELPDTTEHSRTDLSRDLAALHEICVAHSDELRTLSNERGAQQHVLKKLLAITELLQQKQNQYTKTN

Experiments:
[1] = stability of GAP activity to freezing/thawing or storage; assay type: physicochemical; conditions: freezing/thawing or storage at 4° C. for 6 months
c-HaRas protein = assay: Ras GTPase stimulating activity: hydrolysis of [gamma-32P] GTP bound to c-HaRas protein, by GST fusion NF1 mutants; assay type: biochemical, murine
Description: N- and C- terminal deletion mutants were constructed by subcloning the corresponding PCR DNA fragments into the bacterial expression vector pGEX-2TH, as described in Maruta et al., supra. FIG. 4 sets forth the DNA fragments inserted into the expression vector. The number following NF of each mutant indicates the total amino acid residues included. The DNA fragments inserted include the DNA for human type I NF357, human type II NF1-GRD (amino acid residues 1355 to 1531 in addition to the insert of 21 amino acids) and murine c-HaRas (residues 1-189). The type II-specific insert of 21 amino acids is indicated by the number 21 above a triangle following codon 1371. This 21 amino acid insert is set forth in SEQ ID NO: 2. The solid rectangle indicates the GAP active center of 56 amino acids, whereas the shaded rectangle indicates a supporting domain of 22 amino acids.
The expression vectors were transfected into E.coli and the protein expressed as GST fusion proteins. The fusion proteins were thereafter purified from E.coli as glutathione S-transfeRase fusion proteins and affinity-purified on a glutathione (GSH)-agarose column, as described in Maruta, et al., supra.
The purified proteins were then screened for Ras GTPase stimulating activity. The assay was carried out for each of the NF357 deletion mutants.
The hydrolysis of [gamma-^32 P] GTP bound to c-HaRas protein was determined by incubating with bound protein at 25° C. for 20 minutes in the presence or absence of each NF1 mutant preparation in 100 ul of a buffer containing 50 mMTris-HCl, pH 7.5, 15 mMMgCl2, 2.5 mM EDTA, 3 mM ATP, 1 mM dithiothreitol (DTT) and 0.5 mg/ml bovine serum albumin (BSA), then precipitating the unhydrolyzed [gamma-32P] GTP with charcoal, and finally measuring the radioactivity of the [gamma-32P] inorganic phosphate in the supernatant, as described previously, Maruta et al., supra. Protein concentrations were determined by the Bradford method with BSA as a standard.

Molecule | GAP activity after treatment/storage [1] | Ras GTPase stimulation (in words) (c-HaRas protein) | Activation (fold), Ras GTPase activation (c-HaRas protein; 20 ug/ml NF1 mutants, 25° C., 20 minutes) [fold] | EC50, concentration required for 50% hydrolysis of GTP bound Ras (c-HaRas protein; 25° C., 20 minutes) [µg/mL] | reduction of GTPase activity relative to NF91 (c-HaRas protein; deletion of the C-terminal 13 amino acids from NF91) [fold]
B1 | not significantly affected | still able to stimulate Ras GTPase activity | 6 | 25 | 2.5
B2 | completely inactivated | – | – | – | –
